From US20240245800A1, “HIGHLY SPECIFIC RABBIT SINGLE -DOMAIN ANTIBODIES FOR DRUG DELIVERY IN IMMUNOTHERAPY APPLICATIONS” (TECHNOPHAGE, INVESTIGAÇÃO E DESENVOLVIMENTO EM …, priority 2021, published 2024)
Entries after “also recorded” stand apart in the source; their conditions may differ.

Tests used:
[1] = tested on: Jurkat cells; assay: Immunofluorescence of C5 with Jurkat cells; format: cell-based, human
[2] = tested on: CLBL-1 cells; assay: Immunofluorescence binding/internalization of C5 in CLBL-1 cells; format: cell-based, canine; details: 5 μM, 90 minutes at 37° C.
Protocol: FIG. 8. Binding and internalization characterization of C5 VL sdAb. C5 binding and internalization properties against CLBL-1 cells were evaluated by cytometry and immunofluorescence. A) For flow cytometry analysis, 1×10^6 of CLBL-1 cells were incubated with Live/Dead reagents for 30 minutes. Then, 3 μM of C5 were incubated with the cells for different timepoints at 37° C. After, cells were washed, fixed, permeabilized, and incubated for 30 min with anti-HA antibody, washed twice and incubated with anti-rat Alexa Fluor-488. […] B) By contrast, no binding of C5 was detected with Jurkat cells. C) To confirm the binding of C5 to the CLBL-1 verified by flow cytometry, we evaluated its distribution on the cells by immunofluorescence assay. […] Representative microphotographs with C5 (green) and DAPI stained-nuclei (blue) are shown.
1.5×10^5 of CLBL-1 cells were plated on ibidi μ-Slide 8 Well Glass Bottom (#80827, Ibidi, Germany) and incubated for 24 h at 37° C. in a humidified atmosphere of 5% CO2. Then, 5 μM of VL was added to the cells and incubated for 90 minutes at 37° C. […] In the Airyscan acquisition mode, ×1.80 zoom images were recorded at 1024×1024 resolution. […]

[3] = tested on: CLBL-1 cell extracts; assay: ELISA screening of anti-cNHL VL sdAb clones; format: binding, canine; details: clone supernatants, CLBL-1 extracts
Protocol: After the phage display selection, in order to express and select the best anti-cNHL VL sdAbs, phagemid DNA derived from the in vivo output selection was cloned into a PT7-PL vector and transformed into an E. coli strain BL21. Then, individual clones were auto induced, and the supernatant tested in ELISA assays against CLBL-1 and Jurkat cell extracts. To select the best lead candidates, three parameters were evaluated: binding against cNHL, expression yields, and unspecific binding. […] After selection, to characterize the selected clones, the 43 best lead candidates were analysed by sanger sequencing (FIG. 6B). To get further insights of the enriched sequences during the in vivo phage display selection, we performed next generation sequencing (NGS) of the biopanning repertoires. NGS allows massive sequence analysis of the panning population, enabling a genomic assessment of the library diversity and frequency of each clone. Two samples were sequenced: biopanning from the CLBL-1 tumour models and initial immune VL sdAb cNHL library (FIG. 7). Upon bioinformatic analysis of the NGS data, we were able to determine the diversity of each sample and identify the most represented clones. A total of 34880 sequences were obtained for the biopanning from the CLBL-1 tumours. The NHL library obtained a total of 48864 sequences. The number of singletons, consisting of the sequences with a single occurrence, varied between samples, ranging from 76.8% in the library, and 33.3% in the in vivo biopanning from the CLBL-1. Through the comparison of the sequence prevalence between the biopannings and the library, we were able to verify that the number of occurrences in each sequence was higher in the biopanning clones. […] By comparing ELISA data, sanger sequencing and NGS analysis, the six best clones (A12, C8, C5, E1, E2, and B12) were produced and purified. Due to its binding characteristics and production properties, C5 sdAb clone was chosen to be thoroughly characterized and used in the development of the proposed ADC.
To express and select anti-NHL-sdAbs, phagemid DNA encoding selected anti-cNHL sdAbs was cloned into PT7-PL (PT7-peptide leader) vector and transformed into E. coli strain BL21. Individual colonies were inoculated in 100 μl of Super Broth (SB) medium containing Overnight Express™ Autoinduction System (Novagen®) and 100 μg/ml of ampicillin and incubated overnight at 30° C. Next day, 40 μl of BugBuster (Roche) containing anti-protease cocktail-EDTA free inhibitors (Roche) were added and incubated for 30 min at 4° C. Then, plates were centrifuged at 1200 rpm and the supernatant was tested in ELISA assays. Three different conditions were assessed: binding to the sdAbs to the antigen, expression level and unspecific binding. After coating the wells with CLBL-1 cell extracts or Raji cell extracts for 1 h at 37° C., wells were blocked with 3% BSA in PBS. Then, wells were washed with PBS and clones were added and incubated for 1 h, at 37° C. Next, plates were washed and incubated with anti-HA HRP antibody (Roche). Finally, after 1 h incubation, plates were washed and ABTS (Roche) was added and optical density at 405 nm was measured at different time points. To evaluate the expression level, the same protocol was applied, excluding antigen coating.
For unspecific binding, antigen was replaced by 3% BSA. Rabbit sera and anti-CD20 antibody were used as positive controls. BL21 cell extracts were used as negative controls. In the end, the ten best individual clones were sequenced at Eurofins company. Sequence analysis was performed using the Vector Nti software (Invitrogen). The antibody frameworks, CDRs and the amino acid numbering and sequences followed the rules described by Kabat et al. (1991) Sequences of proteins of immunological interest. Bethesda, MD, U.S. Dept. of Health and Human Services, Public Health Service, National Institutes of Health. […]

B1: C5: rabbit derived anti-cNHL VL sdAb clone, SEQ. ID. 3; ^99mTc radiolabelled for biodistribution (antibody, listed as Oryctolagus cuniculus, V domains shown)
VL: ELDLTQTPSPVSASVGGTATINCQASQSVYNNYWWAWYQQRPGHPPKLLIYETSKLASGVPSRFKGSGSGTQFTLTIIDVQCDDAATYVCAGGYGTVIDNAFGGGTELEIL
modifications: 99mTc(CO)3 radiolabel
notes: ID; ^99mTc radiolabelled for biodistribution
B1 was tested, and the “fluorescence with Jurkat cells (immunofluorescence)” value [1] was “no detectable fluorescence”, the “distribution/internalization in CLBL-1 cells (immunofluorescence)” value [2] was “internalization into the cytoplasm; also recorded: high density of Alexa Fluor-488 labelled C5 labelled in the perinuclear region” and the “distribution/internalization in CLBL-1 cells (immunofluorescence)” value ([2]; listed as VL C5) was “internalization into the cytoplasm”. For the same molecule, the “ELISA signal against NHL cells” value [3] was “best results”.
